Where two headings read alike, the source gives them in different places.

What all share (assay): SPR
(SPR reads the build-up and loss of mass on a sensor chip optically.)

Experiment [1] addresses T1, LILRB1 D1D4 (complete extracellular domain of LILRB1) (human, UniProt Q8NHL6 24-417).
The target in experiment [2] is T1, LILRB1 D1D4 (complete extracellular …). The source holds these as a separate data set.
The target of experiment [3] is T2, LILRB1 D1D2 (human, UniProt Q8NHL6 24-221).
In experiment [4] the target is T2, LILRB1 D1D2. The source holds these as a separate data set.

T1 sequence (Q8NHL6 24-417): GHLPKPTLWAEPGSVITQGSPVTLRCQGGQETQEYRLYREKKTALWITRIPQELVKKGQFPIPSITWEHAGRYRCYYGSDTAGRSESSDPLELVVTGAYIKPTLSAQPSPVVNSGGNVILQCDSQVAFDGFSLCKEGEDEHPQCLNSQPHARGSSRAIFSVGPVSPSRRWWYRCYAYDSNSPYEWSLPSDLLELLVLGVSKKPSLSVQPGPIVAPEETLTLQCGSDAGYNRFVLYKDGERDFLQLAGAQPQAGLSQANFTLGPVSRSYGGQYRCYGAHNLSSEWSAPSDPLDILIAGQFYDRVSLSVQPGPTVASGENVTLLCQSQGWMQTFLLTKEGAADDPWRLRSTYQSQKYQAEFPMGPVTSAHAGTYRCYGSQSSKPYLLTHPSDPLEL
T2 sequence (Q8NHL6 24-221): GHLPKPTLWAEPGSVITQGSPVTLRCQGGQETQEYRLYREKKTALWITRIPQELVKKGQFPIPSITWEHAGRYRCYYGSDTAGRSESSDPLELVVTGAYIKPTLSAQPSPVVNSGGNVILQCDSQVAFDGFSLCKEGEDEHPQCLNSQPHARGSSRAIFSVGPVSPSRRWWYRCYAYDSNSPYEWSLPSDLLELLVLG

B1: RIFIN PF3D7_0100400 variable region (165-329) (domain or fragment)
chain: VWKTTEIAAAMELAKQAGAAAGLKAGHLAGTNAVIEQLRTLGIYFVGDKLLETIIDVTNYMNVSFIYDKVYSHYTTSCTPSLVNDQLVGTFNTSDPFCNLVHSNLQGSFYRSSAQTIIYEKVEEAVAGAEQAATTKTAVMTPIYTTEFTAKNIAEVEAATTSYYT
For orientation: Kd means the equilibrium constant for the complex coming apart. What is called koff is a measure of how fast the partners let go of each other. High values mean a short-lived complex, low ones a long-lived complex. As a reminder, the kon is a measure of how fast the partners come together. Read a low kon as slower complex formation. In experiment [1], B1 came in with an equilibrium dissociation constant (Kd) of 14500 nM, a koff of 0.0592 s⁻¹ and a kon of 4100 M⁻¹ s⁻¹. Also, binding in experiment [2] was put at a Kd of 4400 ± 3200 nM.

B2: RIFIN PF3D7_1254800 variable region (residues 165-274) (domain or fragment)
chain: NYETINAFIAKTIEELEGIPGITKLFGAKISQFVTPAVFRKPMSLVETILSEKKKLCLCAANKNELLCRGMNPNVPETLPKKIEVAVNEVLSSVNDTWATATTPTTFFTN
In experiment [1], B2 registered a Kd of 1130 nM, a koff of 0.297 s⁻¹ and an on-rate constant (kon) of 263000 M⁻¹ s⁻¹. The equilibrium dissociation constant (Kd) in experiment [2] was found to be 570 ± 130 nM.

B3: RIFIN PF3D7_1254800 variable region C223S (165-261) (domain or fragment)
chain: NYETINAFIAKTIEELEGIPGITKLFGAKISQFVTPAVFRKPMSLVETILSEKKKLCLSAANKNELLCRGMNPNVPETLPKKIEVAVNEVLSSVNDT
B3: the Kd in experiment [1] stood at 1040 nM; in the experiment with LILRB1 D1D2 [3], 1330 nM; in experiment [2] it was 700 ± 5 nM; in the experiment with LILRB1 D1D2 [4], 1100 ± 50 nM. Besides, the values for the off-rate constant (koff) (in experiment [1]; with LILRB1 D1D2 [3]) were 0.299 s⁻¹ and 0.579 s⁻¹, respectively. The kon in experiment [1] was 288000 M⁻¹ s⁻¹; with LILRB1 D1D2 [3] it was 437000 M⁻¹ s⁻¹.

Values taken from article PMC7116854 (Nature, 2020).
